Results from article PMC11589680 (Nature Communications, 2024).

molecular target: T1, Retriever complex (VPS35L, VPS26C, VPS29) (human, UniProt Q7Z3J2;O14972;Q9UBQ0-2); assay: equilibrium pull-down
T1 sequence (Q7Z3J2 whole entry, chain 1 of 2): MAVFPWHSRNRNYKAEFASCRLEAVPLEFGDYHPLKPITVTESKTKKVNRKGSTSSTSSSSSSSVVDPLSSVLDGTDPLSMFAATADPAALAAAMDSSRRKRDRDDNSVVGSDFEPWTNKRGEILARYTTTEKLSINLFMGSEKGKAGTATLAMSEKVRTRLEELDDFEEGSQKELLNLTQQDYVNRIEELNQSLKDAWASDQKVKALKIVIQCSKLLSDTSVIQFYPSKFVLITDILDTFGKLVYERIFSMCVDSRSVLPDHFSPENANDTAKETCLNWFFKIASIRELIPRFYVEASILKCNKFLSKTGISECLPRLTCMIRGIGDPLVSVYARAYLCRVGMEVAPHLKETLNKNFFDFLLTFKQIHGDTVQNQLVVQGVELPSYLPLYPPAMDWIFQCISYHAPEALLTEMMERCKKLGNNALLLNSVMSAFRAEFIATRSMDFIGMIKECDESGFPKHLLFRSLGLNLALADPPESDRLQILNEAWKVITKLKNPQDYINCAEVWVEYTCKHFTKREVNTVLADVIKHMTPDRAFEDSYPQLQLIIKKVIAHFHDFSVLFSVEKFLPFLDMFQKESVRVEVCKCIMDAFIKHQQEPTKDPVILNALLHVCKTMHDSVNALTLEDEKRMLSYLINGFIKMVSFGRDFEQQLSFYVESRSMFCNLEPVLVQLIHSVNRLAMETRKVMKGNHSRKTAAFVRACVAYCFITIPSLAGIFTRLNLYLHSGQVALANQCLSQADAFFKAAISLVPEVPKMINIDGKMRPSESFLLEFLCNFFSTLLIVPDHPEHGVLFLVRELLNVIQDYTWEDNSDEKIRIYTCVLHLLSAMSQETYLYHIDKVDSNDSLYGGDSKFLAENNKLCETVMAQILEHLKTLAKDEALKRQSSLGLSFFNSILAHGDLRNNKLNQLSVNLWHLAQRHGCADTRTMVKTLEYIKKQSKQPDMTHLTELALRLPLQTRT
T1 sequence (O14972 whole entry, chain 2 of 2): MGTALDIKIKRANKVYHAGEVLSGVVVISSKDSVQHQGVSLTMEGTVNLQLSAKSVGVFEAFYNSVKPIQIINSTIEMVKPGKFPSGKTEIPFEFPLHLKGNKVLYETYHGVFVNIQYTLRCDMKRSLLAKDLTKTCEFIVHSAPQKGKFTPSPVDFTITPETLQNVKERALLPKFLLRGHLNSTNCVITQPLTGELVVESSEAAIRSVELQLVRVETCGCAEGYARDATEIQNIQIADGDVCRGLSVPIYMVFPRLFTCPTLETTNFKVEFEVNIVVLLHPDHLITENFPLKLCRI

Row | Kd [nM] | Binder
1 | ~110 | ASASDVHGNFAFEGIGDEDL [GST-SNX17 CT (GST-tagged tail peptide, last 20 residues of SNX17)]

molecular target: T1, Retriever complex (VPS35L, VPS26C, …); assay: pull-down

Row | binding result | Binder
2 | binds | untagged full-length SNX17 (natural protein) MHFSIPETESRSGDSGGSAYVAYNIHVNGVLHCRVRYSQLLGLHEQLRKEYGANVLPAFPPKKLFSLTPAEVEQRREQLEKYMQAVRQDPLLGSSETFNSFLRRAQQETQQVPTEEVSLEVLLSNGQKVLVNVLTSDQTEDVLEAVAAKLDLPDDLIGYFSLFLVREKEDGAFSFVRKLQEFELPYVSVTSLRSQEYKIVLRKSYWDSAYDDDVMENRVGLNLLYAQTVSDIERGWILVTKEQHRQLKSLQEKVSKKEFLRLAQTLRHYGYLRFDACVADFPEKDCPVVVSAGNSELSLQLRLPGQQLREGSFRVTRMRCWRVTSSVPLPSGSTSSPGRGRGEVRLELAFEYLMSKDRLQWVTITSPQAIMMSICLQSMVDELMVKKSGGSIRKMLRRRVGGTLRRSDSQQAVKSPPLLESPDATRESMVKLSSKLSAVSLRGIGSPSTDASASDVHGNFAFEGIGDEDL
3 | binds | ASASDVHGNFAFEGIGQEDL [GST-SNX17 CT tail, −4 position to Q]
4 | binds | ASASDVHGNFAFEGLGDEDL [GST-SNX17 CT tail, −6 position to L]
5 | binds | SVYLVNFRCCRSHDLCNEDL [GST-tagged CT tail of PATE1 (last 20 amino acids)]
6 | binds | SKIKIAKDDCVFGNIKEEDL [GST-tagged CT tail of SNX31 (last 20 amino acids)]

Continued, binder first:

Row | Binder | binding result
7 | GST-SNX17 (natural protein) MHFSIPETESRSGDSGGSAYVAYNIHVNGVLHCRVRYSQLLGLHEQLRKEYGANVLPAFPPKKLFSLTPAEVEQRREQLEKYMQAVRQDPLLGSSETFNSFLRRAQQETQQVPTEEVSLEVLLSNGQKVLVNVLTSDQTEDVLEAVAAKLDLPDDLIGYFSLFLVREKEDGAFSFVRKLQEFELPYVSVTSLRSQEYKIVLRKSYWDSAYDDDVMENRVGLNLLYAQTVSDIERGWILVTKEQHRQLKSLQEKVSKKEFLRLAQTLRHYGYLRFDACVADFPEKDCPVVVSAGNSELSLQLRLPGQQLREGSFRVTRMRCWRVTSSVPLPSGSTSSPGRGRGEVRLELAFEYLMSKDRLQWVTITSPQAIMMSICLQSMVDELMVKKSGGSIRKMLRRRVGGTLRRSDSQQAVKSPPLLESPDATRESMVKLSSKLSAVSLRGIGSPSTDASASDVHGNFAFEGIGDEDL | binds
8 | ASASDVHGNFAFEGVGDEDL [GST-SNX17 CT tail, −6 position to V] | binds
9 | ASASDVHGNFAFEGIGNEDL [GST-SNX17 CT tail, −4 position to N] | binds
10 | RYVYYGKNSEGNRFIRDDQL [GST-tagged CT tail of LRMDA (last 20 amino acids)] | binds
